The chains are these.
T1: recombinant His-tagged Der p2 (dust mite, UniProt P49278 18-146)
T1 construct: also called Der p2-His; Der p2-HIS; not shown: His tag
T1 sequence (looked up): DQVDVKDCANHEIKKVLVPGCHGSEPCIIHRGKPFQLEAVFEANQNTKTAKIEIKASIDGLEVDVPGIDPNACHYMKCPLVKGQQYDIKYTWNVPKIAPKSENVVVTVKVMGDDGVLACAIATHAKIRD

T2: recombinant His-tagged Der p1 (dust mite, UniProt P08176 99-320, limits assumed)
T2 sequence (looked up): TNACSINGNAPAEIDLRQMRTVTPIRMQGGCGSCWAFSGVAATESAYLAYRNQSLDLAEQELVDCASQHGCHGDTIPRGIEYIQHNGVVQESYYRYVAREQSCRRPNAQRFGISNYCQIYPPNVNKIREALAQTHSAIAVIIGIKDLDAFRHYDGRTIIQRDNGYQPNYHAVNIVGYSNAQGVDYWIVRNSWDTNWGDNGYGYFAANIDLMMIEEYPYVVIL

B1: SDAB22111-1-D6 (VHH)
VHH: DVQLVESGGGLVQPGGSLRLSCVASGLTFSYYDMKWHRQAPGKERELVAAIIEGGRTMYADSVKGRFTISRDSPKKSVYLQMNNLKSEDTAVYYCNAVRARFRGLGNDDAWGQGTQVTVSS
notes: anti-Der p2 alpaca VHH; prokaryotic expression
B2: SDAB22111-1-B1 (VHH)
VHH: DVQLVESGGGLVQPGGSLRLSCAASGFTFALYSMRWYRQAPGKERELVAAITSGRSTNYADSVKGRFTISRDNAKNTVYLQMNSLKPEDTAVYHCNARHPIATLGNYWGQGTPVTVSS
notes: as for B1
B3: SDAB22111-1-C1 (VHH)
VHH: QVQLVESGGGLVQPGGSLRLSCAASASFVGAYAMYWFRQATGKQRELVAFITSGNSTNYADSVKGRFTISRDYTKNTVYLQMNKLKPEDTAVYSCNLVTSRGDYWGQGTQVTVSS
notes: as for B1
B4: SDAB22111-1-F9 (VHH)
VHH: QVQLVESGGGLVQPGGSLRLSCAASGRIFRPDGMAWYRQAPGKQREFVAGITRGGRTTYADSVKGRFTISRDNAENTVYLQMNSLKPEDTAVYYCNAKPSAWTLPRYRYDYWGQGTQVTVSS
notes: as for B1
B5: SDAB22111-1-E10 (VHH)
VHH: QLQLVESGGGMVQPGGSLRLSCAASGTLFSTALMGWYRQAPGKQRTLVASITDGGSTNYVDSVKGRFTISRDNEKNTVYLQMNSLKFEDTAVYYCNAHWGSYDYWGQGTQVVVSS
notes: as for B1
B6: SDAB22111-1-H12 (VHH)
VHH: QVQLVESGGGLVQPGGSLRLSCAASRSIDRFPAMGWYRQAPGKKRELVAAISSANTRTKYADSVKGRFTISRDNAENTMYLQMNSLKPEDTAVYYCNVFPRPVQGYWGQGTQVTVSS
notes: as for B1
B7: SDAB22111-1-D3 (VHH)
VHH: QLQLVESGGGLVQPGGSLRLSCVVSGRTLSGHNMGWFRQAPGKEREFVARINSNGGTTRYADAVKGRFTISRDNAKNTAYLQMNSLKSEDTAVYYCRLVGPAGYWGQGTQVTVSS
notes: as for B1
B8: SDAB22111-1-F9-B03 (VHH)
VHH: EVQLVESGGGLVQPGGSLRLSCAASGRTFSSYAMGWFRQAPGKEREFVAGISRRGSNIYYADSVKGRFTISRDNAKNTVYLQMNSLKPEDTAVYYCNARHPRISTRLYWGQGTQVTVSS
notes: as for B1
B9: SDAB22112-1-C10 (VHH)
VHH: QLQLVESGGGLVQPGGSLRLSCAASGFTFSSYSMSWYRQAPGKERELVATIDTDGRTNYADSVKGRFTISRDNAKNSVYLQMNSLKPEDTAVYYCNRRQLGVDYWGQGTQVTVSS
notes: anti-Can f1 alpaca VHH
B10: SDAB22112-1-D12-3 (VHH)
VHH: QVQLVESGGGLVQPGGSLRLSCAASGFTFSNYGMSWVRQAPGKGLEWVSDVNSSGSRRFYVDSVKGRFTISRDNAKNTVFLQMNSLKPEDSAVYYCVKLAEAGTLIHVGSWGQGTRVTVSS
notes: anti-Can f1 alpaca VHH
B11: SDAB22112-2-D08 (VHH)
VHH: QVKLEESGGGLVQAGGSLRLSCVASGRTFSRWHTGWYRQAPGREREFVATLRASGGDTYYADSVKGRFTISRDNAKNTVYLQMNSLKPEDTAVYYCNVWANWGAPPSDFSSWGQGTQVTVSS
notes: anti-Can f1 alpaca VHH
B12: SDAB22129-55-35-46-49-1-D01 (VHH)
VHH: QVQLVESGGGLVQAGGSLRLSCAASGRTFSRYAMGWFRQAPGKEREFVAAITGSGSRTYYADSIQGRFTISRDNAKNTVYLQMNSLKPEDTAVYYCVQGWAEATMTSLGEDYDYWGQGTQVTVSS
notes: Expressed from a prokaryotic vector
B13: SDAB22129-55-35-46-49-1-H08 (VHH)
VHH: EVQLVESGGGLVQAGGSLTLSCGRTTSIWGMGWFRQGRGKEREFVAAITPSGSITFYSDHVKGRFTVSRDNALNTVYLQMNSLKPEDTAVYYCARRGSSGSYYWAGSYEAWGQGTQVTVSS
notes: as for B12
B14: SDAB22129-55-35-46-49-1-C12 (VHH)
VHH: QVQLVESGGGLVQAGGSLRLSCAASGRTFSSYAMGWFRQAPGKEREFVAIISNTGGLTDYAHSVKGRFTISRDNAKNTGYLQMNSLKPEDTALYYCAADFLGPKSWPSYWGQGTQVTVSS
notes: as for B12
B15: SDAB22129-55-35-46-49-1-B02 (VHH)
VHH: QLQLVESGGGLVQSGGSLRLSCVAKGGTNHPYPIGWFRQAPGKEQEGVLCIASGGQTQDSAHNPNWADSVKGRFTISRDDATHTVYLEMNNLKADDTAVYFCAAPREIYIDSRCATYKYEYWGQGTQVTVSP
notes: as for B12
B16: SDAB22129-55-35-46-49-1-B12 (VHH)
VHH: QVQLVESGGGLVQAGGPLRLSCAASGRTFSSYAMGWFRQAPGKEREFVAAISWSGDSTYYADSVKGRFTLSRDNAKNTVYLQMNSLKPEDTAVYYCAVPSSGRGTYYYTLSAYEYWGQGTQVTVFS
notes: as for B12
B17: SDAB22129-55-35-46-49-1-G02 (VHH)
VHH: QLQLVESGGGLVQAGGSLRLSCTASGRTFRNFGMGWFRQAPGKERKLVASISYVGGNTDYADSVKGRFTISMDNAKNTVVLQMNSLKPEDTAMYYCAARNPNRNEYPWWGQGTQVTVSS
notes: as for B12
B18: SDAB22129-55-35-46-49-1-G07 (VHH)
VHH: QVQLVESGGGLVQAGGSLRLSCAASGRTFSSYAMGWFRQAPGKERELVATISWSGGSTYYADSVKGRFTISRDNAKNTGFLQMNSLKPEDTAVYYCAADFASTVGTPLTRPAYWGQGTQVTVSS
notes: as for B12

T3 sequence (O18873 19-174 limits assumed): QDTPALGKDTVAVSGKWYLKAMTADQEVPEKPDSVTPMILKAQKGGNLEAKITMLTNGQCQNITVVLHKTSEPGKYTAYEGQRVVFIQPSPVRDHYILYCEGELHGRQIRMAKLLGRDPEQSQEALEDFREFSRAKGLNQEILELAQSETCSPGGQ

The first data set concerns the target T1, recombinant His-tagged Der p2. Kind of data set: ELISA, antigen coated.
Conditions: not given
As for the experimental part: (§1) 2 microgram per milliliter (μg/mL) target antigen is coated in a 96-well plate and ELISA assay is performed after incubation with candidate VHHs. The binding EC50 of each clone is calculated using Prism GraphPad. The positive control antibody is involved as an internal control.
(§2) Isolated VHH clones were further validated by performing an ELISA assay as described in Example 1. Metrics of thermostability including melting temperature (Tₘ), onset temperature (Tₒₙₛₑₜ), and temperature of aggregation (Tagg), were also tested with increasing temperature in the range of 20° C.-95° C. at the speed of 1° C./min. These measurements were performed using a Nanotemper DSF. When applicable, Tₘ1 refers to the first melting point observed, Tₘ2 refers to the second melting point observed, etc., Sequence information for the VHH clones and the binding assay results are summarized in Table 3. The individual binding curves are shown for each candidate in FIGS. 3B-3I.
On the technique in general: In an ELISA, binding on a coated surface is turned into a signal by an enzyme label.
For orientation: EC50 means the concentration that produces a half-maximal response. For the molecule B1, the EC50 is 9.66 µg/mL.
Turning to B2, the EC50 stood at 8.23 µg/mL.
Same read-out and setting: the same measure for B3: 1.11 µg/mL; for B4: 4.95 µg/mL.
In the case of B5, the EC50 was determined as 6.57 µg/mL.
Still for that read-out and setting: the result for B6 reads 2.67 µg/mL; that for B7, 8.41 µg/mL.
For B8, the EC50 worked out at 15.9 µg/mL.

A further data set concerns the target T3, recombinant His-tagged Can f1 (dog (Canis familiaris), UniProt O18873 19-174).
T3 construct: also called Can f1-His; recombinant Can f1; not shown: His tag
Kind of data set: ELISA, antigen coated.
Conditions: not given
As for the experimental part:
as §1
Isolated VHH clones were further validated by performing an ELISA assay as described in Example 1. Metrics of thermostability including melting temperature (Tₘ), onset temperature (Tₒₙₛₑₜ), and temperature of aggregation (Tagg), were also tested with increasing temperature in the range of 20° C.-95° C. at the speed of 1° C./min. The individual binding curves are shown for each candidate in FIGS. 5B-5H.
Consider B9, for which the EC50 is 9.4 µg/mL.
The same measure, in the same setting: the result for B10 reads 10.4 µg/mL; that for B11, 5.84 µg/mL.

The next data set concerns the target T2, recombinant His-tagged Der p1. Kind of data set: cell-based or functional assay.
Conditions: not given
For the molecule B12, the “Maximum Rate of Blocking” value is 73.
As for B13, the “Maximum Rate of Blocking” value was found to be 92.8.
The same measure, in the same setting: the result for B14 reads 91.6; that for B15, 75.4; that for B16, 95.4.
Turning to B17, the “Maximum Rate of Blocking” value was 85.2.
On the same count and under the same terms, the same measure for B18: 93.3.

Tested on in another data set: not listed separately
As to the kind of experiment: Thermostability (Tm, Tonset, Tagg) by Nanotemper DSF. In kind it is physicochemical. The arrangement: key to Tm2 / Tagg / Tm1 / Tm / Tm3 / Tonset / Tonset ø (mean) / Tagg ø (mean): temperatures in °C. To be noted: anti-Der p2 VHH; 20° C.-95° C. at 1° C./min. The method, then: as §2, with “(Tm),” for “(Tₘ),”, “(Tonset),” for “(Tₒₙₛₑₜ),”, “Tm1” for “Tₘ1”, “Tm2” for “Tₘ2”
Isolated VHH clones were further validated by performing an ELISA assay as described in Example 1. Metrics of thermostability including melting temperature (Tm), onset temperature (Tonset), and temperature of aggregation (Tagg), were also tested with increasing temperature in the range of 20° C.-95° C. at the speed of 1° C./min. The individual binding curves are shown for each candidate in FIGS. 5B-5H.
Isolated VHH clones were further validated by performing an ELISA assay as described in Example 1. Metrics of thermostability including melting temperature (Tm), onset temperature (Tonset), and temperature of aggregation (Tagg), were also tested with increasing temperature in the range of 20° C.-95° C. at the speed of 1° C./min. The individual binding curves are shown for each candidate in FIGS. 7B-7P.
The detailed thermostability graphs used to determine the Tm, Tonset, and Tagg are illustrated in FIGS. 19A-19I and raw data is summarized in Table 23. Any subsequent melting points observed (Tm1, Tm2, Tm3, etc.) are separated by commas.
On to B1, for which the Tagg amounted to 41.57.
In the case of B3, the Tagg was found to be 43.53.
Same read-out and setting: the result for B6 reads 43.37; that for B7, 42.45; that for B8, 40.04.

Staying with this data set, now noted: anti-Der p2 VHH; first melting point observed; in °C (unit assumed).
Turning to B1, the Tm1 was determined as 49.02.
For B3, the Tm1 turned out to be 54.52.
Still for that read-out and setting: the same measure for B6: 51.93; for B7: 53.78.

The data set is the same for the next values; noted with them: anti-Der p2 VHH; second melting point observed; in °C (unit assumed).
As to B1, the Tm2 is on record as 62.55.
Take B3: the Tm2 is on record as 66.51.
On to B6, for which the Tm2 worked out at 59.13.
Same read-out and setting: the result for B7 reads 69.76.

The data set is the same for the next values; noted with them: anti-Der p2 VHH; single melting point; in °C (unit assumed).
For the molecule B8, the Tm was found to be 71.38.

Staying with this data set, now noted: anti-Der p2 VHH; third melting point; in °C (unit assumed).
Turning to B6, the Tm3 came to 68.62.

In a further data set the target is T2, recombinant His-tagged Der p1. As to the kind of experiment: ELISA, antigen coated on plate.
Conditions: not given
As for the experimental part:
as §1
Isolated VHH clones were further validated by performing an ELISA assay as described in Example 1. The individual binding curves are shown for each candidate in FIGS. 9A-9K.
Take B12: the EC50 came to 0.0147 µg/mL.
Still for that read-out and setting: the same measure for B13: 16.5 µg/mL.
Take B14: the EC50 came to 4.95 µg/mL.
The same measure, in the same setting: the same measure for B15: 0.0193 µg/mL; for B16: 1.77 µg/mL.
On the same count and under the same terms, the result for B17 reads 4.21 µg/mL; that for B18, 0.485 µg/mL.

The record behind these values is patent US20240352105A1, “COMPOSITIONS AND METHODS FOR NEUTRALIZING ANTIGENS” (PACAGEN, INC, priority 2023, published 2024).
